We go through 12 molecules from patent publication US20120172293A1 (Takeda / Millennium, published 2012).

Non-standard residues stand in square brackets, D forms with d. *: point of attachment. Morpholinocarbonyl = O=C(N1CCOCC1)*; Amidino = amidino group, N=C(N)*; tBuAla = CC(C)(C)C[C@H](N)C(=O)O; Cha = N[C@@H](CC1CCCCC1)C(=O)O; Aib = CC(C)(N)C(=O)O; Carbamoyl = NC(=O)*

T1: human Y2 receptor (human, UniProt P49146 1-381)
T1 construct: whole, on cells; used as membrane fraction of hY2R/CHO cells; also called human NPY2R; hY2R
T1 sequence (looked up): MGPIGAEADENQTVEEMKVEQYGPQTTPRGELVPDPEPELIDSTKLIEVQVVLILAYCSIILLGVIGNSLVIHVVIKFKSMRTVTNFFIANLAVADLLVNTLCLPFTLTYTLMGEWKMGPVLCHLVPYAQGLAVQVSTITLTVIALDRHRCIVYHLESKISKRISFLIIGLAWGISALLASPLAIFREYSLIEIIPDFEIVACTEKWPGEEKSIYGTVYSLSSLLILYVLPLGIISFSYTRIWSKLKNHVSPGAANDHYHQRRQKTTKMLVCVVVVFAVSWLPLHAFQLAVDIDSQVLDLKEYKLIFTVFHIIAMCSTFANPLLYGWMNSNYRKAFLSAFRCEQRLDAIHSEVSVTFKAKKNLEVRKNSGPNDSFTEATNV

B1: Ac-[Glu23, D-Pro24, Cha27,28,36, Lys30, Aib31]-PYY(23-36) (peptide)
peptide: Ac-E[dP]RH[Cha][Cha]NK[Aib]TRQR[Cha]-NH2
SMILES: CC(=O)N[C@@H](CCC(=O)O)C(=O)N1CCC[C@@H]1C(=O)N[C@@H](CCCNC(=N)N)C(=O)N[C@@H](Cc1c[nH]cn1)C(=O)N[C@@H](CC1CCCCC1)C(=O)N[C@@H](CC1CCCCC1)C(=O)N[C@@H](CC(N)=O)C(=O)N[C@@H](CCCCN)C(=O)NC(C)(C)C(=O)N[C@H](C(=O)N[C@@H](CCCNC(=N)N)C(=O)N[C@@H](CCC(N)=O)C(=O)N[C@@H](CCCNC(=N)N)C(=O)N[C@@H](CC1CCCCC1)C(N)=O)[C@@H](C)O
notes: also called compound No. 137
B2: Morpholinocarbonyl-[Glu23, D-Pro24, Cha27,28,36, Aib31]-PYY(23-36) (peptide)
peptide: Morpholinocarbonyl-E[dP]RH[Cha][Cha]NL[Aib]TRQR[Cha]-NH2
SMILES: CC(C)C[C@H](NC(=O)[C@H](CC(N)=O)NC(=O)[C@H](CC1CCCCC1)NC(=O)[C@H](CC1CCCCC1)NC(=O)[C@H](Cc1c[nH]cn1)NC(=O)[C@H](CCCNC(=N)N)NC(=O)[C@H]1CCCN1C(=O)[C@H](CCC(=O)O)NC(=O)N1CCOCC1)C(=O)NC(C)(C)C(=O)N[C@H](C(=O)N[C@@H](CCCNC(=N)N)C(=O)N[C@@H](CCC(N)=O)C(=O)N[C@@H](CCCNC(=N)N)C(=O)N[C@@H](CC1CCCCC1)C(N)=O)[C@@H](C)O
notes: also called compound No. 174
B3: Carbamoyl-[Asp23, D-Pro24, Cha27,28,36, Aib31]-PYY(23-36) (peptide)
peptide: Carbamoyl-D[dP]RH[Cha][Cha]NL[Aib]TRQR[Cha]-NH2
SMILES: CC(C)C[C@H](NC(=O)[C@H](CC(N)=O)NC(=O)[C@H](CC1CCCCC1)NC(=O)[C@H](CC1CCCCC1)NC(=O)[C@H](Cc1c[nH]cn1)NC(=O)[C@H](CCCNC(=N)N)NC(=O)[C@H]1CCCN1C(=O)[C@H](CC(=O)O)NC(N)=O)C(=O)NC(C)(C)C(=O)N[C@H](C(=O)N[C@@H](CCCNC(=N)N)C(=O)N[C@@H](CCC(N)=O)C(=O)N[C@@H](CCCNC(=N)N)C(=O)N[C@@H](CC1CCCCC1)C(N)=O)[C@@H](C)O
notes: also called compound No. 161; ureido-[Asp23,D-Pro24,Cha27,28,36,Aib31]-PYY(23-36)
B4: Ac-[Glu23, D-Pro24, Cha27,36, Aib28,31, Lys30]-PYY(23-36) (peptide)
peptide: Ac-E[dP]RH[Cha][Aib]NK[Aib]TRQR[Cha]-NH2
SMILES: CC(=O)N[C@@H](CCC(=O)O)C(=O)N1CCC[C@@H]1C(=O)N[C@@H](CCCNC(=N)N)C(=O)N[C@@H](Cc1c[nH]cn1)C(=O)N[C@@H](CC1CCCCC1)C(=O)NC(C)(C)C(=O)N[C@@H](CC(N)=O)C(=O)N[C@@H](CCCCN)C(=O)NC(C)(C)C(=O)N[C@H](C(=O)N[C@@H](CCCNC(=N)N)C(=O)N[C@@H](CCC(N)=O)C(=O)N[C@@H](CCCNC(=N)N)C(=O)N[C@@H](CC1CCCCC1)C(N)=O)[C@@H](C)O
notes: also called compound No. 171
B5: Amidino-[D-Pro24, Cha27,36, Leu(Me)28, Lys30, Aib31]-PYY(23-36) (peptide)
peptide: Amidino-S[dP]RH[Cha][tBuAla]NK[Aib]TRQR[Cha]-NH2
SMILES: C[C@@H](O)[C@H](NC(=O)C(C)(C)NC(=O)[C@H](CCCCN)NC(=O)[C@H](CC(N)=O)NC(=O)[C@H](CC(C)(C)C)NC(=O)[C@H](CC1CCCCC1)NC(=O)[C@H](Cc1c[nH]cn1)NC(=O)[C@H](CCCNC(=N)N)NC(=O)[C@H]1CCCN1C(=O)[C@H](CO)NC(=N)N)C(=O)N[C@@H](CCCNC(=N)N)C(=O)N[C@@H](CCC(N)=O)C(=O)N[C@@H](CCCNC(=N)N)C(=O)N[C@@H](CC1CCCCC1)C(N)=O
notes: also called compound No. 186
B6: Ac-[Tyr23, D-Pro24, Cha27,28,36, Aib31]-PYY(23-36) (peptide)
peptide: Ac-Y[dP]RH[Cha][Cha]NL[Aib]TRQR[Cha]-NH2
SMILES: CC(=O)N[C@@H](Cc1ccc(O)cc1)C(=O)N1CCC[C@@H]1C(=O)N[C@@H](CCCNC(=N)N)C(=O)N[C@@H](Cc1c[nH]cn1)C(=O)N[C@@H](CC1CCCCC1)C(=O)N[C@@H](CC1CCCCC1)C(=O)N[C@@H](CC(N)=O)C(=O)N[C@@H](CC(C)C)C(=O)NC(C)(C)C(=O)N[C@H](C(=O)N[C@@H](CCCNC(=N)N)C(=O)N[C@@H](CCC(N)=O)C(=O)N[C@@H](CCCNC(=N)N)C(=O)N[C@@H](CC1CCCCC1)C(N)=O)[C@@H](C)O
notes: also called compound No. 162
B7: Morpholinocarbonyl-[Asp23, D-Pro24, Cha27,28,36, Aib31]-PYY(23-36) (peptide)
peptide: Morpholinocarbonyl-D[dP]RH[Cha][Cha]NL[Aib]TRQR[Cha]-NH2
SMILES: CC(C)C[C@H](NC(=O)[C@H](CC(N)=O)NC(=O)[C@H](CC1CCCCC1)NC(=O)[C@H](CC1CCCCC1)NC(=O)[C@H](Cc1c[nH]cn1)NC(=O)[C@H](CCCNC(=N)N)NC(=O)[C@H]1CCCN1C(=O)[C@H](CC(=O)O)NC(=O)N1CCOCC1)C(=O)NC(C)(C)C(=O)N[C@H](C(=O)N[C@@H](CCCNC(=N)N)C(=O)N[C@@H](CCC(N)=O)C(=O)N[C@@H](CCCNC(=N)N)C(=O)N[C@@H](CC1CCCCC1)C(N)=O)[C@@H](C)O
notes: also called compound No. 173
B8: Morpholinocarbonyl-[D-Pro24, Cha27,36, Leu(Me)28, Lys30, Aib31]-PYY(23-36) (peptide)
peptide: Morpholinocarbonyl-S[dP]RH[Cha][tBuAla]NK[Aib]TRQR[Cha]-NH2
SMILES: C[C@@H](O)[C@H](NC(=O)C(C)(C)NC(=O)[C@H](CCCCN)NC(=O)[C@H](CC(N)=O)NC(=O)[C@H](CC(C)(C)C)NC(=O)[C@H](CC1CCCCC1)NC(=O)[C@H](Cc1c[nH]cn1)NC(=O)[C@H](CCCNC(=N)N)NC(=O)[C@H]1CCCN1C(=O)[C@H](CO)NC(=O)N1CCOCC1)C(=O)N[C@@H](CCCNC(=N)N)C(=O)N[C@@H](CCC(N)=O)C(=O)N[C@@H](CCCNC(=N)N)C(=O)N[C@@H](CC1CCCCC1)C(N)=O
notes: also called compound No. 187
B9: Amidino-[Glu23, D-Pro24, Cha27,28,36, Lys30, Aib31]-PYY(23-36) (peptide)
peptide: Amidino-E[dP]RH[Cha][Cha]NK[Aib]TRQR[Cha]-NH2
SMILES: C[C@@H](O)[C@H](NC(=O)C(C)(C)NC(=O)[C@H](CCCCN)NC(=O)[C@H](CC(N)=O)NC(=O)[C@H](CC1CCCCC1)NC(=O)[C@H](CC1CCCCC1)NC(=O)[C@H](Cc1c[nH]cn1)NC(=O)[C@H](CCCNC(=N)N)NC(=O)[C@H]1CCCN1C(=O)[C@H](CCC(=O)O)NC(=N)N)C(=O)N[C@@H](CCCNC(=N)N)C(=O)N[C@@H](CCC(N)=O)C(=O)N[C@@H](CCCNC(=N)N)C(=O)N[C@@H](CC1CCCCC1)C(N)=O
notes: also called compound No. 190
B10: Ac-[Gly24, Cha27,28,36, Aib31]-PYY(23-36) (peptide)
peptide: Ac-SGRH[Cha][Cha]NL[Aib]TRQR[Cha]-NH2
SMILES: CC(=O)N[C@@H](CO)C(=O)NCC(=O)N[C@@H](CCCNC(=N)N)C(=O)N[C@@H](Cc1c[nH]cn1)C(=O)N[C@@H](CC1CCCCC1)C(=O)N[C@@H](CC1CCCCC1)C(=O)N[C@@H](CC(N)=O)C(=O)N[C@@H](CC(C)C)C(=O)NC(C)(C)C(=O)N[C@H](C(=O)N[C@@H](CCCNC(=N)N)C(=O)N[C@@H](CCC(N)=O)C(=O)N[C@@H](CCCNC(=N)N)C(=O)N[C@@H](CC1CCCCC1)C(N)=O)[C@@H](C)O
notes: also called compound No. 112
B11: Morpholinocarbonyl-[Glu23, D-Pro24, Cha27,28,36, Lys30, Aib31]-PYY(23-36) (peptide)
peptide: Morpholinocarbonyl-E[dP]RH[Cha][Cha]NK[Aib]TRQR[Cha]-NH2
SMILES: C[C@@H](O)[C@H](NC(=O)C(C)(C)NC(=O)[C@H](CCCCN)NC(=O)[C@H](CC(N)=O)NC(=O)[C@H](CC1CCCCC1)NC(=O)[C@H](CC1CCCCC1)NC(=O)[C@H](Cc1c[nH]cn1)NC(=O)[C@H](CCCNC(=N)N)NC(=O)[C@H]1CCCN1C(=O)[C@H](CCC(=O)O)NC(=O)N1CCOCC1)C(=O)N[C@@H](CCCNC(=N)N)C(=O)N[C@@H](CCC(N)=O)C(=O)N[C@@H](CCCNC(=N)N)C(=O)N[C@@H](CC1CCCCC1)C(N)=O
notes: also called compound No. 191
B12: Ac-[Glu23, D-Pro24, Cha27,36, Leu(Me)28, Lys30, Aib31]-PYY(23-36) (peptide)
peptide: Ac-E[dP]RH[Cha][tBuAla]NK[Aib]TRQR[Cha]-NH2
SMILES: CC(=O)N[C@@H](CCC(=O)O)C(=O)N1CCC[C@@H]1C(=O)N[C@@H](CCCNC(=N)N)C(=O)N[C@@H](Cc1c[nH]cn1)C(=O)N[C@@H](CC1CCCCC1)C(=O)N[C@@H](CC(C)(C)C)C(=O)N[C@@H](CC(N)=O)C(=O)N[C@@H](CCCCN)C(=O)NC(C)(C)C(=O)N[C@H](C(=O)N[C@@H](CCCNC(=N)N)C(=O)N[C@@H](CCC(N)=O)C(=O)N[C@@H](CCCNC(=N)N)C(=O)N[C@@H](CC1CCCCC1)C(N)=O)[C@@H](C)O
notes: also called compound No. 168

For the first assay, the target named is T1, human Y2 receptor. The experiment in a line: RBA: [125I]-PYY displacement, hY2R/CHO membranes. The method, then:
After incubation at room temperature for 60 minutes, the mixture was filtered through the cell harvester FilterMate (PerkinElmer) using UniFilter-96 GF/C treated with polyethylenimine (PEI) solution (20 mM Tris, 0.3% PEI, pH 7.4), and the filter was washed 3 times with a filtering buffer (50 mM Tris, 5 mM MgCl₂, 150 mM NaCl, 0.03% NaN₃, 0.05% CHAPS, pH 7.4). Thereafter, UniFilter-96 GF/C was dried in a mechanical drier for 1 hour, 15 μl of the liquid scintillator MicroScint O (PerkinElmer) was added to each well, and a measurement was taken using TopCount (PerkinElmer). The data obtained were analyzed using Prism to calculate the IC₅₀ value.
As to B1, the “IC50 Ratio (vs PYY(3-36))” value amounted to 3.6 ratio.
With B2, the “IC50 Ratio (vs PYY(3-36))” value is 1.9 ratio.
For the molecule B3, the “IC50 Ratio (vs PYY(3-36))” value was determined as 4.1 ratio.
For B4, the “IC50 Ratio (vs PYY(3-36))” value was 2.9 ratio.
For the molecule B5, the “IC50 Ratio (vs PYY(3-36))” value turned out to be 0.43 ratio.
For the molecule B6, the “IC50 Ratio (vs PYY(3-36))” value came out at 5.2 ratio.
On to B7, for which the “IC50 Ratio (vs PYY(3-36))” value was 2.9 ratio.
Consider B8, for which the “IC50 Ratio (vs PYY(3-36))” value was determined as 0.66 ratio.
As to B9, the “IC50 Ratio (vs PYY(3-36))” value came to 0.66 ratio.
B10: the “IC50 Ratio (vs PYY(3-36))” value was 6.3 ratio.
On to B11, for which the “IC50 Ratio (vs PYY(3-36))” value was determined as 1.4 ratio.
As to B12, the “IC50 Ratio (vs PYY(3-36))” value is 0.73 ratio.

For a further assay, the target named is T1, human Y2 receptor. As to the kind of experiment: cell-based or functional assay.
Take B1: the “GBA EC50 Ratio (vs PYY(3-36)), [35S]GTPγS” value (from here on “GBA EC50 Ratio”) was found to be 1.8 ratio.
The same measure, in the same setting: the same measure for B2: 1 ratio.
The same measure, in the same setting: next, B3: 2.4 ratio; B4: 1.6 ratio; B5: 0.69 ratio.
Still for that read-out and setting: next, B6: 2.6 ratio; B7: 1.4 ratio.
For B8, the “GBA EC50 Ratio” value is 0.84 ratio.
B9: the “GBA EC50 Ratio” value came to 0.77 ratio.
For B10, the “GBA EC50 Ratio” value is 3.9 ratio.
For the molecule B11, the “GBA EC50 Ratio” value was determined as 1.4 ratio.
Same read-out and setting: next, B12: 1.1 ratio.
